1 substance from article PMC6034511 can be followed below.

The test system of this data set is HIV-1 RT p66/p51 wild type (HIV-1). The experiment in a line: fluorescence polarization. Particulars: not stated in the held text (SI Experimental section).

As a reminder, the Kd is the free concentration of one partner at which half of the binding sites on the other are occupied at equilibrium, for simple one-to-one binding. Read a low Kd as higher affinity.

5'-fluorescein DNA/RNA hybrid displayed a Kd of 3.5 nM.
